Source: the DeepSol protein solubility set

test: soluble on expression in E. coli; label from the status in PepcDB or PDB records

| Sequence | soluble on expression in E. coli |
| --- | --- |
| MGSDKIHHHHHHMNPDFSYEKKKIEFSSGYIFKGKHYRCSIIKYASLYKNCTKGTENVEIYHFSPRERSVGSILILHGLGTVNIPFLFWMGSHLASAGLQASVMILPGNYTRTASGSTSGKDFFSPDLRRLTAFWEQAVVDTMTTIDLLQQENIWWDNNCLFGYCLGGMVSTIVSAIDKRINDLILMTVGGNIAKIIWQSPVLKSIRLSLRSGSGEEGYLNDEKRLNARFKEDSLAVKKMKSASELLESDLHPLFKIDPLAYARFNDSEKVTMIEALFDKALPVQTRKQLWEAFGRPKRYIVPIGHVSWFPFEYALGKYILKKLGIKEARKKMRLLESTKPTE | not soluble |
| MGSDKIHHHHHHMNPLETLWQLAANSVKADVLHLALEQQIFDRLEDVTAPEQLAESLGWQPEKTGFLLEILWSMQLLTRHHGGYRTASASSAVLCRSSPRFLGDAWRFRLTSLRQFGQGLADGMHQPLPAQLSELPRDAAWASAAEQQIAQEQRSITADLADQLLSRLPDFPQIRHVLDLGGGPGWVAITLALRHAQISGTIYDLPQTAAVAQRNINAAGLSARLSAQSGAFPSEKYDLIWSSSFLHFVEDIPAMLSTLYNTLTPDGSLVLAQAEIPEEADDAAPILPFYLPMQISGRHVTQEGQLTQWLVEAGFTSVETRRHQAFPMAPLNVLIARKHR | not soluble |
| MGSDKIHHHHHHMNQHTLLPKKTERLQYFGSVSPIKGEKPVEKEKMKDLQNIRKDYFFDIQHVGVANVSHPVTITSAMMPAEQTTAANFTMTCNLPRNQKGINMSRLTELLQVYHQNGWILSFSSLQQFTKELAENMDTSSATVEVRFPWFFERKSPKLEKAGLMHADIFMSVTYRKDQPFKQRAGISAKVTTLCPCSKEISEYSAHNQRGTVKHLGRIFTRAASLPSDVKADLPHAAESNASARLHPVLKRPDEKAVTETAYENPRFVEDLARLIAADLFELEWVSAFEIECRNEESIHLHRCLCEVCFSKEVDKI | not soluble |
| MGSDKIHHHHHHMNRTQLSQLAVLSAVAAHGSFRGAAKELGIAPSAVSHAVGSLEASLGVRLLARTTRSVAATEEGKRLLERLRPALDDIAEALQRAAEARDRPAGKLRITAPRFAADLILAPRLGDFLGRYPDTVLEIANEDGFTNIVEEGYDAGIRLGESLEADMVAVKVGPELKSAVVAAPSYFERFQRPRHPRDLAGHRCIRRRFSNGTIYRWEFEKEGEELTVSVNGPLILGEDRPIIEAATGGAGLAYLFEPRVSGYVAEGKLVRVLEDWCAPYAGPFLYYPTRRLMRPALRAFIDFFRHSG | not soluble |
| MGSDKIHHHHHHMNSDIIVADFWKNNEEILTDFDKDSFCESWTENEMWSIEFKVAQTPKNAHCYSFLDYESSVYFRGQEFVVKQLSHDAVGKTLSKDIRAPHIYYTCQDGRQDDAITGSFTLEQCLTHIFKTDNRGFSWEIIDPSNILEKVQQENFGNNNYLTLIDQLLDDYGVVVIPDNRHLVFKPREIYGAKTENFIRYKYNTDEASFDIDTLSLKTKIKGYGKVDSNGNNYFSPITYTSPEVEKWGIRWQEPVSDERYTVAGNMQRRLKLELQDYPATTGSVILKNDYECEKGDYVLFIYEPLGIDYDVQIVAYKKYPFTIKAPEITLSNNKKSIVSIMAQLAKVLKGAK | not soluble |
| MGSDKIHHHHHHMNSIQLKAVSFSREQPLFEKTNLAIPQGTFSLLIGDSGSGKSTLLRLIAGFAPLDYQGEILIEGMERRQLSTREKAQKIGMLFQNPSQQFTMKTLERELIFALENLGIPPEEMNRKIQTALQLVQTQTLFTRELATLSGGEKQKAALTVLLAMNPDILLLDEPFASIDPTSRKQFIQILARLHQAGKTILVCDHDFSDYADVVDQVVTLKNGQFEKQPLTFIKTKPQTFQLTTSVVKQPMLQLKNFRLSQGKRVLLEEKEALLFKGITTLTGPNGAGKSTLLKAIVQRQKYQGKMFLAGRRLRASKKLYQHMTLAVQQANRQFVTLTLREELLFGQNMTAEKRRKQEEALTFLGLKEKLEHSVFQLSEGQKKMVQLISLLSLDLDCLLLDEPFAGLDERACNYFVEWIKEKSAQQDFLIVTHRLEPLSGVSNYRIELLQQQLIIWQEGTTCK | not soluble |
| MGSDKIHHHHHHMNTHKHARLTFLRRLEMVQQLIAHQVCVPEAARAYGVTAPTVRKWLGRFLAQGQAGLADASSRPTVSPRAIAPAKALAIVELRRKRLTQARIAQALGVSASTVSRVLARAGLSHLADLEPAEPVVRYEHQAPGDLLHIDIKKLGRIQRPGHRVTGNRRDTVEGAGWDFVFVAIDDHARVAFTDIHPDERFPSAVQFLKDAVAYYQRLGVTIQRLLTDNGSAFRSRAFAALCHELGIKHRFTRPYRPQTNGKAERFIQSALREWAYAHTYQNSQHRADAMKSWLHHYNWHRPHQGIGRAVPISRLNLDEYNLLTVHS | not soluble |
| MGSDKIHHHHHHMNTQPVIGISGCLTGSAVRFDGGHKRMGFVMDELAQWVAFKPVCPEMAIGLPVPRPALRLVQTPVGEIRMRFSHAPHEDVTEKMADFASAHLATLGGLSGFIVCAKSPSCGMERVRLYDEKGNRGRKEGVGLFTGALMARYPWLPVEEDGRLHDPLLRENFVERVFALHELNALRARGLTRHGLLAFHSRYKLQLLAHHQAGYREIGPFVASLHEWEDLEAFFEVYREKLMAILKQPASRKNHTNVLMHIQGYFRDQLNSRQRGELREVILNYRAGLLPILAPLTLLKHYLAEYPDRYLQAQNYFDPYPQDLALRLTVN | not soluble |
| MGSDKIHHHHHHMNTYAQESKLRLKTKIGADGRCVIEDNFFTPPFKLMAPFYPKDDLAEIMLLAVSPGMMRGDAQDVQLNIGPNCKLRITSQSFEKIHNTEDGFASRDMHIVVGENAFLDFAPFPLIPFENAHFKGNTTISLRSSSQLLYSEIIVAGRVARNELFKFNRLHTKISILQDEKPIYYDNTILDPKTTDLNNMCMFDGYTHYLNLVLVNCPIELSGVRECIEESEGVDGAVSETASSHLCVKALAKGSEPLLHLREKIARLVTQTTTQKV | not soluble |
| MGSDKIHHHHHHMNTYHPFSLTTPSTLMIQDWAQTNQNNKEVIAGFTTKNGGVSQKPFESLNTGLHVHDKDADVVKNREYIADMFNTDLQSWVFADQTHDNRVQKVTQRDRGKGAREYHTALKATDGIYTNEKNVFLALCFADCVPLFFYDPVKSLVGVAHAGWKGTVKQIGREMVKQWTEKEGSNPSDIYAVIGPSISGACYTVDDRVMDAVRALPVSADLAANQTAKAQYQLDLKELNRLILMDSGLASEQISVSGLCTESEPSLFYSHRRDQGKTGRMMSFIGMKEA | not soluble |
| MGSDKIHHHHHHMNVINETANVLKLETGSVTSAKGFSAVGIHTGVKRKRKDLGAIVCEVPASSAAVYTLNKVQAAPLKVTQESIAVEGKLQAMIVNSGIANACTGKRGLDDAYTMRAVGAETFHIPEHYVAVTSTGVIGEFLPMDVITNGIRQLKPEATIEGAHAFNEAILTTDTVEKHTCYQTIVNGKTVTVGGVAKGSGMIHPNMA | soluble |
| MGSDKIHHHHHHMNVLALDTSQRIRIGLRKGEDLFEISYTGEKKHAEILPVVVKKLLDELDLKVKDLDVVGVGIGPGGLTGLRVGIATVVGLVSPYDIPVAPLNSFEMTAKSCPADGVVLVARRARKGYHYCAVYLKDKGLNPLKEPSVVSDEELEEITKEFSPKIVLKDDLLISPAVLVEESERLFREKKTIHYYEIEPLYLQKSIAELNWEKKKRG | soluble |
| MGSDKIHHHHHHMNVRQLEAFQAVMSAGSLTAAAGLLSVSQPAVSQLIAQLEGNCGFSLFDRAGTKMRPTREAEVLHAEVQRMFIGVGRVANVAKALRDQTWGALSIASFPVLTRRMLPNIVTSFCKTRPDVKFSVESMRSRSLVDAVATQQVDLGFSILPGDRPEVDSTHVCTLRGLCILPKGHRLSKRRLIRAKDLDGEAFVALGPQDHSRFQIDKIFEEADVQRRIQVEVGQSETACSFVANGVGVAVVDPISVWNNAGADFVVCAFEPKMEFEIWLIRPKTARPFALIDTFSDYACAELMRLKEEEIDIRQPRG | not soluble |
| MGSDKIHHHHHHMNVTLRQLQAFIAVAELGRFHLAADHLGLTQSAISILIKDLEVALKHRLFDRHTRMVSLTTAGAEFLPQARKIMSDLEIAVANVHELASLQRGRVTIAAAIVLAATLLPPVIARFVKRYPDISVQVRDMPEEEIRSALKRNEADLGIGTVSADDPEIQASVLMRDQLTLICRSDHRFAKARQVSWASLAGEGVIGLAKDNPLRGLVDRALIASGVEVKTRYEVRFSTTAISMVAEGLGIAILPENSRQLTTNVDVRIVELVDPVISRNISILQYRQPMLSPAAAKMKEFLMGASRKLS | not soluble |
| MGSDKIHHHHHHMPDAAGGVRVPHPPRPFDRPDRPAARLCRTQQLHPRVPPLERHLAPRLAGTAEPDRALKPQDKSLSKADPMTRLLLLEGNTADKRARGRELGVRSSSEIYAQAIAAHFPRIELDVLNGADEGEAIPHDRSWADYDGFVVTGSSLHAYDREFAVTNQIALVAQAAEHGLPIFGSCWGLQIAVMAAGGEVAYNPRGREVGFARKIALNDAGRAHPMFGAKQHVFDAPCIHYDEVVRMPDGATLLASNGHSLVQAAVIPLGQSEVWAVQYHPEFDLAQLVQLYTLYAADMIAQGFFSNEAELVAYRDKIARLAQDPTDAGLAWQLGIDADVLDPRQRAAEIIAWIESRVLNGT | not soluble |
| MGSDKIHHHHHHMPEPRRSTIDAGEVERFSALAAEWWNPNGKFRPLHKFNPVRLSYIRDQIAARFGRDPRAARPFEGLRILDIGCGGGLLCEPMARLGAEVVGADASETNIEVAKLHAAEGNVIVDYRATTAEDLADAGETFDVILNMEVVEHVADIDLFVAKCGQMVRPGGIMFVATINRTLKALGLAIIGAEYVLRWLPRGTHQFGKLVRPEELEKALGGASLTIIDRTGVTYNPLADRWARSKDMDVNYMVLAEKGSV | not soluble |
| MGSDKIHHHHHHMPFANPQEAIDFLDKHPQVQHVEVFIIDPNGIPRGKLLHRQEVLSMYRHGRPLPSTILGLTVQGDDVEDTGLVWEVGDADCLAFPIEGGLLMQPWRAQPTAQVHLTMHPEAGMPAAVADPRLVLSKVIDSLQADGFYPVMAAELEFFLLDQRFDANGRPQPAMQSDGHRPHQTQVYGILELERLQPFLDDLYHACEVQGIPARTAISEYAPGQVEITLEHRFDALQAMDEAVRYKRLVKGVAAKHGMQACFMAKPFGELAGSGMHMHVSLADADGNNRFASDNPEGTPELTQSIAGMMATLEDAQLLFCPNANSFRRFQSASYAPIAKTWGVNNRTVSFRVPGGPAPSRHVEHRICGADANPYLAAAAILAACHHGIRNQLSPGQAIVGNGYEGKHQTLPTDWLSALTNFERSEWMKSVLGEDFHRIYGRIKRAEYQEFMAEVGQQDWHWYLTHA | not soluble |
| MGSDKIHHHHHHMPFIIDYQCLCAINSEIKMFSGEQLGQAISEAIKRKNVSQKEVADHFGVKQPSVSGWIKNGRIDKKHLDKLIDYFSDVVTPSHFGIETFRVLKSNEQSSIRFPRLNAEATCGAGTINDHYIEVVDYVTVAAAWAREKLGGNLNKIQVITARGDSMEPTIENGDVMFVDTAVEAFDGDGLYLLWYIDGLKAKRLQSTVGGGLMIISDNSSYRTETVRGEDLNAVRIIGRIRGAWRLSQF | not soluble |
| MGSDKIHHHHHHMPHKASVFIVEFKFELESCPLGVVIPLEESKNKLASVKPLVDLTRPDMERVNQLILSRAGSDVQMIPEVANHLISSGGKRLRPMLTLASASMFGYEGDNHIKLATSVEFMHTATLLHDDVVDESDLRRGKSTARTIWGNQASVLVGDFLLGQAFRMMVDVGSLDALDVLSTAASVIAEGEVLQLSVAKNMETTEDDYLQVIRAKTAALFAAAAEVGPIVAKTDKASRSALKSYGMNLGLAFQLVDDVLDYGGKSADLGKNTGDDFREGKITLPVILSYRRGTQDERAFWRNAIEKGESSDENLEKALGLITKYNGLGDTIGRATHYGTIARDALAPLPQSPWKNALLEVIDFCIERLN | not soluble |
